# B1: HEEH_KT_rd6_0007 (parent)
# chain: SIEEEIKKAEEAKEKGKTFIHGDFVATTEELLDELLKRLRKKL
# Variants of: B1
# Test: folding stability dG (cDNA display proteolysis); higher = more stable
# Conditions: PBS, room temperature
row,Variant,folding stability dG [kcal/mol]
1,A26R,0.603
2,A26S,0.724
3,A26T,0.686
4,A26V,0.954
5,A26W,1.24
6,A26Y,1.6
7,T27A,1.27
8,T27C,1.76
9,T27D,2.16
10,T27E,1.24
11,T27F,1.55
12,T27G,1.08
13,T27H,1.41
14,T27I,1.11
15,T27K,1.09
16,T27L,1.22
17,T27M,1.17
18,T27N,1.98
19,T27P,0.51
20,T27Q,0.865
21,T27R,0.962
22,T27S,1.57
23,T27V,1.09
24,T27W,1.66

row,Variant,folding stability dG [kcal/mol]
1,T27Y,1.62
2,T28A,0.936
3,T28C,1.98
4,T28D,0.797
5,T28E,0.679
6,T28F,1.32
7,T28G,0.966
8,T28H,0.534
9,T28I,1.31
10,T28K,0.472
11,T28L,1.3
12,T28M,1.34
13,T28N,1.09
14,T28P,0.562
15,T28Q,0.473
16,T28R,0.557
17,T28S,1.15
18,T28V,1.17
19,T28W,1.19
20,T28Y,0.985
21,E29A,1.63
22,E29C,2.15
23,E29D,1.21
24,E29F,1.47

row,Variant,folding stability dG [kcal/mol]
1,E29G,1.32
2,E29H,1.2
3,E29I,1.76
4,E29K,1.52
5,E29L,1.64
6,E29M,1.63
7,E29N,1.26
8,E29P,1.78
9,E29Q,1.41
10,E29R,1.62
11,E29S,1.46
12,E29T,1.55
13,E29V,1.65
14,E29W,1.78
15,E29Y,1.18
16,E30A,1.41
17,E30C,1.63
18,E30D,1.17
19,E30F,1.13
20,E30G,0.9
21,E30H,1.15
22,E30I,0.954
23,E30K,1.24
24,E30L,1.14

row,Variant,folding stability dG [kcal/mol]
1,E30M,1.05
2,E30N,0.882
3,E30P,0.673
4,E30Q,1.14
5,E30R,1.19
6,E30S,1.12
7,E30T,1.09
8,E30V,0.976
9,E30W,1.42
10,E30Y,1.15
11,L31A,1.28
12,L31D,1.52
13,L31E,2
14,L31F,0.877
15,L31G,0.74
16,L31H,1.08
17,L31I,0.938
18,L31K,0.756
19,L31M,1.65
20,L31N,0.715
21,L31P,0.452
22,L31Q,1.75
23,L31R,0.535
24,L31S,0.841

row,Variant,folding stability dG [kcal/mol]
1,L31T,0.882
2,L31V,0.71
3,L31W,0.95
4,L31Y,0.721
5,L32A,0.414
6,L32C,0.637
7,L32D,0.374
8,L32E,0.247
9,L32F,1.59
10,L32G,0.372
11,L32H,0.393
12,L32I,1.46
13,L32K,0.345
14,L32M,0.752
15,L32N,0.294
16,L32P,0.168
17,L32Q,0.13
18,L32R,0.281
19,L32S,0.285
20,L32T,0.441
21,L32V,0.661
22,L32W,0.894
23,L32Y,1.22
24,D33A,1.22

row,Variant,folding stability dG [kcal/mol]
1,D33C,1.98
2,D33E,1.34
3,D33F,1.32
4,D33G,0.853
5,D33H,1.04
6,D33I,1.35
7,D33K,1.23
8,D33L,1.23
9,D33M,1.17
10,D33N,1.27
11,D33P,-0.325
12,D33Q,0.991
13,D33R,1.37
14,D33S,1.04
15,D33T,1.1
16,D33V,1.17
17,D33W,1.44
18,D33Y,1.28
19,E34A,1.19
20,E34C,1.64
21,E34D,0.87
22,E34F,1.4
23,E34G,0.737
24,E34H,1.02

row,Variant,folding stability dG [kcal/mol]
1,E34I,1.36
2,E34K,1.11
3,E34L,1.4
4,E34M,1.3
5,E34N,0.881
6,E34P,0.383
7,E34Q,1.17
8,E34R,1.2
9,E34S,0.84
10,E34T,1.02
11,E34V,0.952
12,E34W,1.86
13,E34Y,1.4
14,L35A,0.494
15,L35D,0.12
16,L35E,0.313
17,L35F,0.799
18,L35G,0.119
19,L35H,0.458
20,L35I,1.15
21,L35K,0.309
22,L35M,0.714
23,L35N,0.287

# — the MegaScale stability set (Tsuboyama et al. 2023)
